Results from article PMC4207562, “Study of the Structure-Function-Stability Relationships in Yeast D-amino Acid Oxidase: Hydrophobization of Alpha-Helices” (Acta Naturae, 2014).
Changes are numbered by the printed parent chain. Numbers in names are those of the source.

Key:
Details in all cases: 50 mM potassium phosphate pH 8.0, 30 °C, air-saturated
[1] = substrate: NCCCC[C@@H](N)C(=O)O; test: peroxidase/ABTS coupled assay, A414; type: biochemical, Trigonopsis variabilis
Text: (§1) peroxidase/ABTS coupled assay, A414 on TvDAAO

[2] = substrate: NC(=O)C[C@@H](N)C(=O)O; test: peroxidase/ABTS coupled assay, A414; type: biochemical, Trigonopsis variabilis
Text: as §1

[3] = substrate: N[C@H](Cc1ccc(O)cc1)C(=O)O; test: peroxidase/ABTS coupled assay, A414; type: biochemical, Trigonopsis variabilis
Text: as §1

[4] = substrate: CSCC[C@@H](N)C(=O)O; test: peroxidase/ABTS coupled assay, A414; type: biochemical, Trigonopsis variabilis
Text: as §1

[5] = substrate: N[C@H](Cc1c[nH]c2ccccc12)C(=O)O; test: peroxidase/ABTS coupled assay, A414; type: biochemical, Trigonopsis variabilis
Text: as §1

purified protein [6] = substrate: C[C@H](O)[C@@H](N)C(=O)O; test: purified protein
purified protein [7] = substrate: CC(C)C[C@@H](N)C(=O)O; test: purified protein
purified protein [8] = substrate: N[C@H](Cc1ccccc1)C(=O)O; test: purified protein
purified protein [9] = substrate: N[C@H](CO)C(=O)O; test: purified protein
purified protein [10] = substrate: C[C@@H](N)C(=O)O; test: purified protein
purified protein [11] = substrate: CC(C)[C@@H](N)C(=O)O; test: purified protein

B1: TvDAAO (Trigonopsis variabilis) (protein)
chain: MAKIVVIGAGVAGLTTALQLLRKGHEVTIVSEFTPGDLSIGYTSPWAGANWLTFYDGGKLADYDAVSYPILRELARSSPEAGIRLISQRSHVLKRDLPKLEVAMSAICQRNPWFKNTVDSFEIIEDRSRIVHDDVAYLVEFRSVCIHTGVYLNWLMSQCLSLGATVVKRRVNHIKDANLLHSSGSRPDVIVNCSGLFARFLGGVEDKKMYPIRGQVVLVRNSLPFMASFSSTPEKENEDEALYIMTRFDGTSIIGGCFQPNNWSSEPDPSLTHRILSRALDRFPELTKDGPLDIVRECVGHRPGREGGPRVELEKIPGVGFVVHNYGAAGAGYQSSYGMADEAVSYVERALTRPNL
notes: recombinant tvdaao gene in pET-33b(+) based plasmid, E. coli BL21(DE3) CodonPlus/pLysS; MonoQ purified; FAD homodimer; no tag stated
[1]
  Km: 29300 ± 3400 µM
  kcat: 3.54 ± 0.21 s⁻¹
  kcat/Km: 120 M⁻¹ s⁻¹
[2]
  Km: 22600 ± 1500 µM
  kcat: 62.4 ± 2 s⁻¹
  kcat/Km: 2800 M⁻¹ s⁻¹
[3]
  Km: 450 ± 60 µM
  kcat: 22.5 ± 1.9 s⁻¹
  kcat/Km: 50000 M⁻¹ s⁻¹
[4]
  Km: 460 ± 30 µM
  kcat: 80.5 ± 0.8 s⁻¹
  kcat/Km: 175000 M⁻¹ s⁻¹
[5]
  Km: 490 ± 40 µM
  kcat: 42.4 ± 1.4 s⁻¹
  kcat/Km: 86500 M⁻¹ s⁻¹
Purified protein [6]
  Km: 11100 ± 800 µM
  kcat: 1.75 s⁻¹
  kcat/Km: 160 M⁻¹ s⁻¹
Purified protein [7]
  Km: 780 ± 20 µM
  kcat: 29.1 s⁻¹
  kcat/Km: 37300 M⁻¹ s⁻¹
Purified protein [8]
  Km: 370 ± 40 µM
  kcat: 27.2 s⁻¹
  kcat/Km: 73900 M⁻¹ s⁻¹
Purified protein [9]
  Km: 36600 ± 3300 µM
  kcat: 20.5 s⁻¹
  kcat/Km: 560 M⁻¹ s⁻¹
Purified protein [10]
  Km: 16700 ± 700 µM
  kcat: 109 s⁻¹
  kcat/Km: 6500 M⁻¹ s⁻¹
Purified protein [11]
  Km: 14400 ± 1200 µM
  kcat: 85.3 s⁻¹
  kcat/Km: 5900 M⁻¹ s⁻¹

B2: TvDAAO (Trigonopsis variabilis; S277A) (protein)
chain: B1 chain with S277A
Purified protein [7]
  Km: 150 ± 20 µM
  kcat: 12 s⁻¹
  kcat/Km: 80000 M⁻¹ s⁻¹

B3: TvDAAO (Trigonopsis variabilis; S335A) (protein)
chain: B1 chain with S335A
notes: as for B1
[4]
  Km: 4600 ± 200 µM
  kcat: 45.9 ± 1.1 s⁻¹
  kcat/Km: 9900 M⁻¹ s⁻¹

B4: TvDAAO (Trigonopsis variabilis; S67A) (protein)
chain: B1 chain with S67A
notes: as for B1
[4]
  Km: 1350 ± 40 µM
  kcat: 104 ± 3 s⁻¹
  kcat/Km: 77400 M⁻¹ s⁻¹
Purified protein [7]
  Km: 340 ± 20 µM
  kcat: 31.4 s⁻¹
  kcat/Km: 93100 M⁻¹ s⁻¹

B5: TvDAAO (Trigonopsis variabilis; S336A) (protein)
chain: B1 chain with S336A
Purified protein [7]
  Km: 70 ± 10 µM
  kcat: 5 s⁻¹
  kcat/Km: 76400 M⁻¹ s⁻¹

B6: TvDAAO (Trigonopsis variabilis; S105A) (protein)
chain: B1 chain with S105A
Purified protein [7]
  Km: 280 ± 20 µM
  kcat: 30.4 s⁻¹
  kcat/Km: 110000 M⁻¹ s⁻¹
Purified protein [8]
  Km: 260 ± 20 µM
  kcat: 32.3 s⁻¹
  kcat/Km: 124000 M⁻¹ s⁻¹

B7: TvDAAO (Trigonopsis variabilis; S77A) (protein)
chain: B1 chain with S77A
notes: as for B1
[2]
  Km: 4700 ± 700 µM
  kcat: 17.2 ± 1 s⁻¹
  kcat/Km: 3700 M⁻¹ s⁻¹
[3]
  Km: 6500 ± 700 µM
  kcat: 12.4 ± 0.8 s⁻¹
  kcat/Km: 1900 M⁻¹ s⁻¹
